Laboratory results from publication PMC2645002.

Target: miniCD4 CD4M48, biotinylated at Lys11
Assay: pull-down

## HIV-1 envelope glycoprotein gp120SF162 (monomer) (natural protein)
  % of recovery: 55.8%
